This passage reports Kd results from publication doi:10.1101/2024.05.15.594416 (bioRxiv, 2024).

One may read the Kd as the concentration at which binding is half-saturated. Low values mean higher affinity, high ones lower affinity.

Assay [1] has as its target T1, soluble CD14 (sCD14), wildtype (human, UniProt P08571 20-367).
T1 sequence (looked up): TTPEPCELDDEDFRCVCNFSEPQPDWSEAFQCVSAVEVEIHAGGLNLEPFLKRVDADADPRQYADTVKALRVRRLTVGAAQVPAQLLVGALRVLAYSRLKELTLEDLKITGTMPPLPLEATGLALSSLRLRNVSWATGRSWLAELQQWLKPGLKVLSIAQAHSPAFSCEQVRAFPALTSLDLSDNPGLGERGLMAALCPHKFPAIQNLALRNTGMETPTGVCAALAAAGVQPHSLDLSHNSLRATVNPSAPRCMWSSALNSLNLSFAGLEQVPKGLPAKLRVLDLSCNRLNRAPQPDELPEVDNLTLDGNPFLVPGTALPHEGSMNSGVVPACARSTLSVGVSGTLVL
Briefly: BLI. Background: Biolayer interferometry detects binding as a change in optical thickness at a sensor tip.

In assay [2] the target is T2, soluble CD14 Surface II mutant (R90E/R92E/R117E) (human, UniProt P08571 20-367, R90E | R92E | R117E).
T2 sequence (looked up): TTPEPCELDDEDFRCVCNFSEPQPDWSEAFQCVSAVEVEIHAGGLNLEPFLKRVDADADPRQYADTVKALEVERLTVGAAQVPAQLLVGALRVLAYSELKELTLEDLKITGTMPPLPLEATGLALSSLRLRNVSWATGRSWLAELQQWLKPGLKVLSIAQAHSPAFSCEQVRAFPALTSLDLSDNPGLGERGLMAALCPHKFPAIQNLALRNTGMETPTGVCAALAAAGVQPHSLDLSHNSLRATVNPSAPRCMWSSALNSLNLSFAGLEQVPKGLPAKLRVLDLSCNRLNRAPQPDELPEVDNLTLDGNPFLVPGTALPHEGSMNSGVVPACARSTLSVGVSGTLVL
As to the kind of experiment: BLI.

B1: S100A9/C3S/P114C, biotinylated (natural protein, human)
chain: TSKMSQLERNIETIINTFHQYSVKLGHPDTLNQGEFKELVRKDLQNFLKKENKNEKVIEHIMEDLDTNADKQLSFEEFIMLMARLTWASHEKMHEGDEGPGHHHKPGLGEGTC
modifications: biotin (EZ-link BMCC kit; biotinylation confirmed by MALDI-TOF)
For B1, the Kd in assay [1] amounted to 3.9 µM; in assay [2], 10 µM.
